Substitutions are numbered along the chain they refer to. Each block holds one binder with its values, some of them ahead of it.
Experiments:
[1] = biological target: T1, ubiquitin (UniProt P0CG48 1-76); experiment: pull-down; GST-Ark2C proteins immobilised on Glutathione Sepharose mixed with ubiquitin; PBS pH 7.4, 0.2% Tween 20, 2 mM DTT, 4 °C, 30 min; washed four times with PBS; conditions: both partners purified
T1 construct: ubiquitin, the mature protein; cloned into pET-3a, expressed untagged; Some pull-downs used a Cy3-labelled variant with an added N-terminal Met-Cys; also called Ub^R; Ub^D; source: E. coli BL21 (DE3), purified (HiTrap SP HP, Superdex 75)

[2] = biological target: T1, ubiquitin; experiment: crystal structure; UbArk2C fusion alone, 2.5 Å, PDB 7R70; crystals from 1.6 M Na3Citrate, 16 °C; two copies in the asymmetric unit; conditions: both partners purified

binding result [1]: binds
B1: GST-Ark2C-ΔAcidic (Δ283-291) (domain or fragment, human, UniProt Q6ZSG1 255-346, looked up)
chain: GAVQNTIERFTFPHKYKKRRPQDGKGKKEKCTICLSMLEDGEDVRRLPCMHLFHQLCVDQWLAMSKKCPICRVDIETQLGADS
notes: Ark2C (RNF165), human, RING domain, residues 255-346, without most of the acidic residues of the β3-RING loop; source: E. coli BL21 (DE3), immobilised on Glutathione Sepharose resin; not shown: GST, N-terminal, kept

binding result [2]: binds
B2: Ark2C RING domain (residues 255-346), as it stands in the UbArk2C fusion (domain or fragment, human, UniProt Q6ZSG1 255-346, looked up)
chain: GAVQNTIERFTFPHKYKKRRPQDGKGKKDEGEESDTDEKCTICLSMLEDGEDVRRLPCMHLFHQLCVDQWLAMSKKCPICRVDIETQLGADS
notes: Ark2C (RNF165), human, RING domain, residues 255-346; Used for the pair rows of the Ark2C part of the fusion m2 (structures and cross-links); also called RNF165; source: E. coli BL21 (DE3), purified, as part of the UbArk2C fusion

binding result [1]: binds
B3: GST-Ark2C^KK/AA (Lys271 and Lys272 to alanine) (domain or fragment, human, UniProt Q6ZSG1 255-346, looked up)
chain: B2 chain with K17A, K18A
notes: Ark2C (RNF165), human, RING domain, residues 255-346; The functional row uses this molecule, although the activity assays were done with the protein after cleavage of GST; source: E. coli BL21 (DE3), immobilised on Glutathione Sepharose resin; not shown: GST, N-terminal, kept

Source: PMC8897509 (Nature Communications, 2022)
